Reference: paper PMC8217500

Key:
[1] = biological target: Fc-tagged SARS-CoV-2 receptor-binding domain (RBD), wild type (SARS-CoV-2) (UniProt P0DTC2); test: BLI; Fc-tagged RBD (20 ug/ml) loaded on anti-hIgG Fc Capture (AHC) biosensors, Fab in solution at four to five concentrations; Octet Red96e, room temperature, 1x kinetics buffer (1x PBS pH 7.4, 0.01% w/v BSA, 0.002% v/v Tween 20); 1:1 binding model
[2] = biological target: Fc-tagged SARS-CoV-2 spike receptor-binding domain (RBD) (SARS-CoV-2) (UniProt P0DTC2); test: BLI; Fc-tagged RBD (20 ug/ml) loaded on anti-hIgG Fc Capture (AHC) biosensors, Fab in solution; room temperature; 1x PBS pH 7.4, 0.01% BSA, 0.002% Tween 20; 1:1 binding model

Substance | Kd [1] [nM] | Kd [2] [nM]
COVD21-C8 F58Y Fab | > 1000 | –
COVD21-C8 Fab, Y58 variant (heavy chain F58Y) | – | 2000
